Experimental data published in article PMC6561935, “Hsp90 middle domain phosphorylation initiates a complex conformational program to recruit the ATPase-stimulating cochaperone Aha1” (Nature Communications, 2019).
Where “and” joins values, the source holds several entries; their conditions need not be identical. Equal values may be shown once.

B1: Aha1-N (N-terminal domain of human Aha1) (domain or fragment, UniProt O95433 1-162, looked up)
chain: MAKWGEGDPRWIVEERADATNVNNWHWTERDASNWSTDKLKTLFLAVQVQNEEGKCEVTEVSKLDGEASINNRKGKLIFFYEWSVKLNWTGTSKSGVQYKGHVEIPNLSDENSVDEVEISVSLAKDEPDTNLVALMKEEGVKLLREAMGIYISTLKTEFTQG
notes: Aha1, human, N-terminal domain, amino acids 1-162; source: E. coli, purified
B2: Aha1-C (C-terminal domain of human Aha1) (domain or fragment, UniProt O95433 201-338, looked up)
chain: GVKIPTCKITLKETFLTSPEELYRVFTTQELVQAFTHAPATLEADRGGKFHMVDGNVSGEFTDLVPEKHIVMKWRFKSWPEGHFATITLTFIDKNGETELCMEGRGIPAPEEERTRQGWQRYYFEGIKQTFGYGARLF
notes: Aha1, human, C-terminal domain, amino acids 201-338; source: E. coli, purified
B3: purified Aha1-C (domain or fragment, human, UniProt O95433 201-338, looked up)
chain: B2 chain
notes: Aha1, human, C-terminal domain, amino acid 201-338; perdeuterated for NMR; source: purified
B4: purified human Hsp90α-Y313E (natural protein)
chain: not shown
notes: Hsp90α (heat shock protein 90 alpha), human; 2H/13C Ile-labelled for NMR; also called Hsp90-Y313E; Y313E-Hsp90; source: purified
B5: human Aha1 N-terminal domain (domain or fragment, UniProt O95433 1-162, looked up)
chain: B1 chain
notes: Aha1, human, N-terminal domain (Aha1-N, amino acid 1-162); the ITC methods speak only of 'Aha1 constructs'; source: purified
B6: human Aha1 C-terminal domain (domain or fragment, UniProt O95433 201-338, looked up)
chain: B2 chain
notes: Aha1, human, C-terminal domain (Aha1-C, amino acid 201-338); the ITC methods speak only of 'Aha1 constructs'; source: purified

How the values were obtained:
[1] = molecular target: T1, Human wild-type Hsp90 (Hsp90α) (human, UniProt P07900 1-732); experiment: ITC; without AMPPNP; Hsp90 (30 µM) in the cell, Aha1 constructs (380-450 µM) in the syringe; 20 mM Tris pH 7.5, 100 mM NaCl, 0.5 mM EDTA, 5 mM MgSO4, 1 mM TCEP, 36 °C; three technical repeats; conditions: both partners purified
T1 construct: Heat shock protein 90 alpha, human; also called Hsp90-wt; WT

Hsp90-Y313E [2] = molecular target: T2, Hsp90-Y313E (human, UniProt P07900 1-732, Y313E); experiment: as above; conditions: both partners purified
T2 construct: Heat shock protein 90 alpha, human, phosphomimetic mutant Y313E; also called Y313E-Hsp90; Hsp90α-Y313E; source: E. coli, purified

[3] = molecular target: T1, Human wild-type Hsp90 (Hsp90α); experiment: ITC; with 2 mM AMPPNP in cell and syringe; Hsp90 (30 µM) in the cell, Aha1 constructs (380-450 µM) in the syringe; 20 mM Tris pH 7.5, 100 mM NaCl, 0.5 mM EDTA, 5 mM MgSO4, 1 mM TCEP, 36 °C; three technical repeats; conditions: both partners purified
Hsp90-Y313E [4] = molecular target: T2, Hsp90-Y313E; experiment: as above; conditions: both partners purified
[5] = molecular target: B4; experiment: ITC; Supplementary Table 3, with 2 mM AMPPNP in cell and syringe: Hsp90 30 μM in the cell, Aha1 constructs 380-450 μM in the syringe; 36 °C; 20 mM Tris pH 7.5, 100 mM NaCl, 0.5 mM EDTA, 5 mM MgSO4, 1 mM TCEP; conditions: both partners purified
[6] = molecular target: the molecule itself; experiment: cross-linking; purified Hsp90 (with or without 10 mM AMPPNP, 10 min on ice) mixed with equimolar Aha1-His, 30 min on ice; 1 mM BDP-NHP (lysine-lysine), 30 min at room temperature; 25 mM HEPES pH 7.3, 100 mM NaCl; LC-MS (ReACT, PRM)
[7] = molecular target: T3, human Hsp90α Y313E (phosphomimetic mutant) (human, UniProt P07900 1-732, Y313E); experiment: ITC; PEAQ-ITC, 36 °C; Hsp90 in the cell (30 μM), Aha1 constructs in the syringe (380-450 μM); 20 mM Tris pH 7.5, 100 mM NaCl, 0.5 mM EDTA, 5 mM MgSO4, 1 mM TCEP; 2 mM AMPPNP in cell and syringe; three technical repeats; conditions: both partners purified
T3 construct: Hsp90α, human, with the phosphomimetic substitution Y313E (numbering based on human Hsp90α); also called Hsp90-Y313E; source: purified

human Hsp90α, wild-type [8] = molecular target: T4, human Hsp90α, wild-type (human, UniProt P07900 1-732); experiment: as above; conditions: both partners purified
T4 construct: Hsp90α (heat shock protein 90 alpha), human; also called WT; wild-type Hsp90; source: purified

[9] = molecular target: T3, human Hsp90α Y313E (phosphomimetic …); experiment: ITC; PEAQ-ITC, 36 °C; Hsp90 in the cell (30 μM), Aha1 constructs in the syringe (380-450 μM); 20 mM Tris pH 7.5, 100 mM NaCl, 0.5 mM EDTA, 5 mM MgSO4, 1 mM TCEP; no AMPPNP; three technical repeats; conditions: both partners purified
human Hsp90α, wild-type [10] = molecular target: T4, human Hsp90α, wild-type; experiment: as above; conditions: both partners purified

B1
Kd [1]: 6.8 µM | Kd (Hsp90-Y313E [2]): 11.2 µM | Kd [3]: 4.9 µM | Kd (Hsp90-Y313E [4]): 8.9 µM

B2
Kd (Hsp90-Y313E [2]): 5.5 µM | Kd [3]: 15.6 µM | Kd (Hsp90-Y313E [4]): 2.3 µM

B3
fold reduction of Kd against wild-type Hsp90 (both with AMPPNP) [5]: ~7 fold | fold reduction of Kd with AMPPNP against without AMPPNP [5]: > 2 fold

B4
binding result [6]: binds

B5
Kd [7]: 7.97 µM and 8.96 µM and 9.66 µM and 8.86 µM | Kd (human Hsp90α, wild-type [8]): 5.69 µM and 4.69 µM and 4.25 µM and 4.88 µM | Kd [9]: 11.6 µM and 12.2 µM and 9.96 µM and 11.2 µM | Kd (human Hsp90α, wild-type [10]): 7.2 µM and 6.1 µM and 7.22 µM and 6.84 µM

B6
Kd [7]: 2.02 µM and 2.27 µM and 2.62 µM and 2.3 µM | Kd (human Hsp90α, wild-type [8]): 17 µM and 13.3 µM and 16.4 µM and 15.6 µM | Kd [9]: 7.71 µM and 4.59 µM and 4.04 µM and 5.45 µM
